Measured values as given in the Human Domainome abundance scans (Beltran et al. 2025).
± gives the uncertainty stated by the source.

B1: Zinc finger MYM-type protein 2, residues 463 to 506; numbered along this chain, Q9UBW7 (parent)
chain: IMNCCEQCGEYLPSKGAGNNVLVIDGQQKRFCCQSCVSEYKQVG
B2: Transcription intermediary factor 1-beta, residues 620 to 671; numbered along this chain, Q13263 (parent)
chain: TLDDSATICRVCQKPGDLVMCNQCEFCFHLDCHLPALQDVPGEEWSCSLCHV

Variants of: B1
Experiment: abundance fitness (aPCA) (normalised: wild type 0, dead -1); higher = more abundant; growth selection in yeast, the domain comes from the species named
Conditions: Homo sapiens

Variant | abundance fitness
GMNCCEQCGEYLPSKGAGNNVLVIDGQQKRFCCQSCVSEYKQVG [I1G] | -0.15 ± 0.089
FMNCCEQCGEYLPSKGAGNNVLVIDGQQKRFCCQSCVSEYKQVG [I1F] | -0.307 ± 0.13
AMNCCEQCGEYLPSKGAGNNVLVIDGQQKRFCCQSCVSEYKQVG [I1A] | -0.051 ± 0.085
DMNCCEQCGEYLPSKGAGNNVLVIDGQQKRFCCQSCVSEYKQVG [I1D] | 0.231 ± 0.19
LMNCCEQCGEYLPSKGAGNNVLVIDGQQKRFCCQSCVSEYKQVG [I1L] | -0.246 ± 0.29
NMNCCEQCGEYLPSKGAGNNVLVIDGQQKRFCCQSCVSEYKQVG [I1N] | 0.097 ± 0.1
EMNCCEQCGEYLPSKGAGNNVLVIDGQQKRFCCQSCVSEYKQVG [I1E] | -0.012 ± 0.14
MMNCCEQCGEYLPSKGAGNNVLVIDGQQKRFCCQSCVSEYKQVG [I1M] | 0.169 ± 0.22

Variants of: B2
Experiment: as above
Conditions: Homo sapiens

Variant | abundance fitness
H51R | 0.081 ± 0.11
H51G | -0.302 ± 0.096
H51F | -0.452 ± 0.24
H51N | -0.528 ± 0.21
H51Q | 0.148 ± 0.16
M20N | -0.337 ± 0.17
M20D | -0.574 ± 0.45
M20A | -0.312 ± 0.12
M20W | -0.73 ± 0.14
M20E | -0.304 ± 0.12
M20V | -0.322 ± 0.1
F26I | -0.812 ± 0.34
F26T | -0.563 ± 0.17
F26C | -0.029 ± 0.24
F26H | -0.374 ± 0.21
F26Q | 0.082 ± 0.16
F26K | 0.155 ± 0.13
F26L | -0.328 ± 0.12
F26W | -0.399 ± 0.13
F26N | -0.122 ± 0.21
C32Q | -0.904 ± 0.26
C32Y | -0.45 ± 0.15
C32K | -0.795 ± 0.17
C32V | -1.03 ± 0.17
C32F | -0.959 ± 0.18
C32W | -0.923 ± 0.18

Variant | abundance fitness
C32D | -0.683 ± 0.18
C32N | -0.528 ± 0.25
C32R | -0.704 ± 0.11
C32H | -0.501 ± 0.22
G42L | -0.086 ± 0.092
G42E | -0.139 ± 0.15
V19G | -0.852 ± 0.14
V19C | -0.536 ± 0.21
V19M | -0.157 ± 0.15
V19R | -0.364 ± 0.11
V19S | -0.613 ± 0.16
V19D | 0.025 ± 0.33
V19P | -0.943 ± 0.33
E25H | -0.578 ± 0.4
E25P | -0.66 ± 0.24
E25F | -0.113 ± 0.18
E25S | 0.059 ± 0.11
E25A | -0.227 ± 0.12
E25Q | -0.077 ± 0.19
E25Y | -0.061 ± 0.19
E25T | -0.024 ± 0.12
E25N | -0.822 ± 0.39
V52G | -0.32 ± 0.19
V52A | 0.197 ± 0.14
V52P | 0.041 ± 0.17
V52R | 0.137 ± 0.15

Variant | abundance fitness
L37R | -0.106 ± 0.096
L37Q | -0.108 ± 0.17
L37M | -0.083 ± 0.14
L37C | -0.021 ± 0.12
C47I | -1.05 ± 0.22
C47S | -0.343 ± 0.083
C47H | -0.572 ± 0.14
C47D | -0.456 ± 0.12
C47N | -0.382 ± 0.12
C47P | -0.484 ± 0.12
C47G | -0.33 ± 0.075
C47Q | -0.636 ± 0.14
C47W | -0.951 ± 0.11
C47E | -0.295 ± 0.088
D17P | -0.604 ± 0.15
D17S | -0.004 ± 0.098
D17F | -0.099 ± 0.21
D17Y | -0.512 ± 0.17
D17H | 0.01 ± 0.15
D17K | -0.018 ± 0.16
D17L | -0.301 ± 0.12
D17E | -0.119 ± 0.16
D17R | -0.062 ± 0.098
L34S | 0.283 ± 0.093
L34F | 0.03 ± 0.15
L34W | -0.328 ± 0.11

Variant | abundance fitness
L34Y | 0.062 ± 0.15
L34Q | 0.05 ± 0.15
L30G | -0.375 ± 0.12
L30K | -0.312 ± 0.24
L30R | -0.02 ± 0.098
L30Q | -0.432 ± 0.27
L30C | -0.135 ± 0.16
G16T | -0.754 ± 0.3
G16I | -0.534 ± 0.3
G16M | -0.553 ± 0.2
G16F | -0.524 ± 0.31
G16W | -0.791 ± 0.13
G16N | 0.137 ± 0.26
G16Y | -0.879 ± 0.41
Q13V | -0.518 ± 0.079
Q13A | -0.322 ± 0.082
Q13W | -0.063 ± 0.1
Q13S | 0.036 ± 0.088
Q13F | 0.042 ± 0.12
Q13H | 0.062 ± 0.15
Q13E | 0.092 ± 0.093
D4C | 0.201 ± 0.1
D4M | 0.083 ± 0.096
D4N | 0.074 ± 0.11
D4G | -0.219 ± 0.082
D4V | 0.148 ± 0.093

Variant | abundance fitness
D39V | 0.026 ± 0.099
D39F | -0.214 ± 0.17
D39G | -0.235 ± 0.098
D39T | -0.089 ± 0.19
D39R | -0.222 ± 0.1
D39H | -0.268 ± 0.21
C24K | -0.894 ± 0.27
C24M | -0.918 ± 0.25
C24H | -1.01 ± 0.24
C24T | -0.842 ± 0.18
C24R | -0.685 ± 0.099
C24P | -0.928 ± 0.28
D31N | 0.175 ± 0.12
D31M | -0.365 ± 0.17
D31C | -0.709 ± 0.2
D31W | -0.921 ± 0.32
P41G | -0.202 ± 0.11
P41T | -0.619 ± 0.22
P41A | -0.368 ± 0.13
P41W | -0.258 ± 0.2
P41V | -0.254 ± 0.11
E44M | -0.058 ± 0.12
E44R | -0.08 ± 0.095
E44Q | -0.057 ± 0.13
E44G | -0.042 ± 0.11
E44T | -0.164 ± 0.14

Variant | abundance fitness
E44A | -0.226 ± 0.11
E44C | 0.058 ± 0.15
E44L | -0.253 ± 0.087
E44K | -0.172 ± 0.13
Q23W | -0.383 ± 0.13
Q23I | -0.373 ± 0.21
Q23F | -0.292 ± 0.26
Q23D | -0.234 ± 0.4
I8L | 0.03 ± 0.092
I8C | 0.083 ± 0.12
I8A | -0.099 ± 0.095
I8E | -0.065 ± 0.11
I8H | -0.123 ± 0.14
I8D | -0.51 ± 0.13
I8P | -0.302 ± 0.13
I8K | -0.107 ± 0.14
W45A | 0.051 ± 0.13
W45F | -0.342 ± 0.16
W45L | -0.195 ± 0.091
W45V | -0.236 ± 0.099
W45Y | -0.202 ± 0.19
